Results as given in patent publication US20220298257A1 (ELPIS BIOPHARMACEUTICALS, published 2022).

T1: full-length human CD22 fused with flag and Myc tags at the C-terminus, on HEK293 or K562 cells (human, UniProt P20273 20-847)
T1 sequence (looked up): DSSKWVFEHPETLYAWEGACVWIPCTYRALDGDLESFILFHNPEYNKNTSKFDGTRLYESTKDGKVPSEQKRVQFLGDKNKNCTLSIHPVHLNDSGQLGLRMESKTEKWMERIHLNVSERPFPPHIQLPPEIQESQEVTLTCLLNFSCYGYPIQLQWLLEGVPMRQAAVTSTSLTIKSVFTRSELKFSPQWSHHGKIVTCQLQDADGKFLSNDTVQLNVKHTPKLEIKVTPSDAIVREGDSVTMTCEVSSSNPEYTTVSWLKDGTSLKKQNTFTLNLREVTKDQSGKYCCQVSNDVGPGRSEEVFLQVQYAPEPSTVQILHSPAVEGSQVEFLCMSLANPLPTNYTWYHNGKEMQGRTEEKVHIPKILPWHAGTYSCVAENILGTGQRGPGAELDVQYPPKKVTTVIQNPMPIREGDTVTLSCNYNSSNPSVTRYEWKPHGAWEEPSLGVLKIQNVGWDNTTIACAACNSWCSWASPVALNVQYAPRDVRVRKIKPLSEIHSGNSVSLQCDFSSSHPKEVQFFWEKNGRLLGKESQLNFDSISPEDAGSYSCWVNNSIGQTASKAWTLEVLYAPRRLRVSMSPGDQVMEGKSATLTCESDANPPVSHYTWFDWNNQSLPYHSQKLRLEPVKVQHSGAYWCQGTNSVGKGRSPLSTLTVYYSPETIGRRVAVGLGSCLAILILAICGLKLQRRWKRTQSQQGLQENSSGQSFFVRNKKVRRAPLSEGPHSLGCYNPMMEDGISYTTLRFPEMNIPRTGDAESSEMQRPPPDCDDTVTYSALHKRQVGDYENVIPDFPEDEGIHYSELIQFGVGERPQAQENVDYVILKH

T2: human CD22-Fc fusion protein (human, UniProt P20273 20-687, limits assumed)
T2 construct: also called recombinant CD22-Fc fusion protein; not shown: Fc part
T2 sequence (looked up): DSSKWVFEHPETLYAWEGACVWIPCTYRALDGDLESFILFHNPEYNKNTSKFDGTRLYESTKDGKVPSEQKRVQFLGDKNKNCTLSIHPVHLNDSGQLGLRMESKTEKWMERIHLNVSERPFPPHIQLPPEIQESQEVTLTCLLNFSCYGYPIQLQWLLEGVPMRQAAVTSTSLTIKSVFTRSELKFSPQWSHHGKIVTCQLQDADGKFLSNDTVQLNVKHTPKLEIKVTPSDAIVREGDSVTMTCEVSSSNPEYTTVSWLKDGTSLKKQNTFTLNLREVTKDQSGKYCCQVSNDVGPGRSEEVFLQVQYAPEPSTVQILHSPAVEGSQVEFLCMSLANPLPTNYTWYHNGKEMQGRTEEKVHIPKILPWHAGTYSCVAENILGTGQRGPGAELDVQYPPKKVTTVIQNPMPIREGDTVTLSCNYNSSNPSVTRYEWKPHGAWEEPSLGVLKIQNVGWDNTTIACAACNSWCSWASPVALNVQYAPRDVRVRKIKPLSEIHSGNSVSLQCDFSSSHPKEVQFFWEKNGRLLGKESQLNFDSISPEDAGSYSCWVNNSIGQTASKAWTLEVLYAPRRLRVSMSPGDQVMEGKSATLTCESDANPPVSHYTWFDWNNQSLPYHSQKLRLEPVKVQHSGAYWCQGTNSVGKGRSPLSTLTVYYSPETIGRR


Assays:
[1] = molecular target: T1, full-length human CD22 fused with flag …; experiment: cell-based or functional assay
[2] = molecular target: T1, full-length human CD22 fused with flag …; experiment: cell-based or functional assay; remark: listed apart in the source
[3] = molecular target: T1, full-length human CD22 fused with flag …; experiment: ELISA, IgG format; antigen format not described
[4] = molecular target: T3, CD123 on the surface of CHO-K1 cells (UniProt P26951 19-378); experiment: FACS on CHO-K1 cells expressing CD123, anti-hFc Alexa 488
T3 construct: whole, on cells; Negative control cells that express CD123 but not CD22; also called CHOK1-CD123; cell surface CD123

[5] = molecular target: T1, full-length human CD22 fused with flag …; experiment: FACS on CD22-expressing cells (HEK293-CD22 by the table's head), anti-hFc Alexa 488
[6] = molecular target: T1, full-length human CD22 fused with flag …; experiment: FACS, antibody fragment titrated on CD22-expressing cells, anti-His Alexa 488
[7] = molecular target: T1, full-length human CD22 fused with flag …; experiment: FACS, scFv titrated on CD22-expressing cells, anti-His Alexa 488
[8] = molecular target: T2, human CD22-Fc fusion protein; experiment: SPR Biacore T200; CD22-Fc captured on Protein G chip, scFv as analyte;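 also: run in 1×HBST buffer, with the response of reference flow cell 1 subtracted from the CD22 capture cell and kinetics fitted in Biacore T200 evaluation software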
[9] = molecular target: T1, full-length human CD22 fused with flag …; experiment: FACS on CD22 K562 cells, competitor 1.77 nM M971
[10] = molecular target: T1, full-length human CD22 fused with flag …; experiment: FACS on CD22 K562 cells, competitor 5.13 nM M971
[11] = molecular target: T1, full-length human CD22 fused with flag …; experiment: FACS on CD22 K562 cells, competitor 0.77 nM BL22
[12] = molecular target: T1, full-length human CD22 fused with flag …; experiment: FACS on CD22 K562 cells, competitor 0.175 nM BL22
[13] = molecular target: T1, full-length human CD22 fused with flag …; experiment: FACS on CD22 K562 cells, scFv alone (M971 binning experiment)
[14] = molecular target: T1, full-length human CD22 fused with flag …; experiment: FACS on CD22 K562 cells, scFv alone (BL22 binning experiment)

T3 sequence (P26951 19-378 limits assumed): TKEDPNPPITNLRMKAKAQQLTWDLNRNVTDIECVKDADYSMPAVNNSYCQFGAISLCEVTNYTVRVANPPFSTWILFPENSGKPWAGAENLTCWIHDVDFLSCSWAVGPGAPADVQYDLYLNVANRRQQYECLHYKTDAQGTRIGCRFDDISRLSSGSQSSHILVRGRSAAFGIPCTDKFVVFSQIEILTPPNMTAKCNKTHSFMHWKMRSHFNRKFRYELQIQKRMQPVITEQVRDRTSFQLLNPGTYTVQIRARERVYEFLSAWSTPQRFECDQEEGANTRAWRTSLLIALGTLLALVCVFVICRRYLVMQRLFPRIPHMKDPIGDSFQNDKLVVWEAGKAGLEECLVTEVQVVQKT

Row | Binder | EC50 in ADCC assay (Promega ADCC Bioreporter, CD22/HEK293 target cells) [1] [nM] | T½ (Hour) of internalization, CD22/HEK293 cells, pHrodo secondary [2] [Hour] | EC50 [7] [nM] | Kd [8] [nM] | koff [8] [s⁻¹] | kon [8] [M⁻¹ s⁻¹] | also measured
1 | EP97-B03 (IgG) (antibody, V domains shown) VH: QLVQSGAEVKKPGASVKVSCKASGYTFSSYGITWVRQAPGQGLEWMGWISAYNGNTNYAQKFQGRVTLTTDTSTSIAYMELRSLTSDDTAVYYCATGGQEDYWGQGTLVTVSS VL: not shown | 3.71 | 5.26 | – | – | – | – | –
2 | EP160-F10 (a single domain antibody) (VHH, Human VH-only single domain antibody from a human library (not a camelid VHH); not shown: C-terminal flag and 6xHIS tag) VHH: EVQLVESGGGVVQPGRSLRLSCVASGFTFRNYGMQWVRQTPDKGLEWVAVTAHDGTVQYYVDSVKGRFTISRDNSKDTLYLQMNSLRVADTAVYYCAKEATPRAADHFDYWGQGTLGTVSS | – | – | – | – | – | – | EC50 [6]: 9 nM
3 | EP160-G04 scFv (scFv, VH-VL orientation; not shown: C-terminal flag and 6xHIS tag) scFv: QVQLVQSGAEVKKPGASVKVSCKASGYTFSSYGITWVRQAPGQGLEWMGWISAYNGNTNYAQKFQGRVTLTTDTSTSIAYMELRSLTSDDTAVYYCATGGQEDYWGQGTLVTVSSGGGGSGGGGSGGGGSEIVMTQSPATLSVSPGERATLSCRASQSVSSNLAWYQQKPGQAPRLLIYDASTRATGIPARFSGSGSGTEFTLTISSLQSEDFAVYYCQQYHNWAPLTFGGGTKVGIK | – | – | 1.1 | 0.322 | 4.03e-05 | 125000 | –
4 | EP160-F04 scFv (scFv, VH-VL orientation; not shown: C-terminal flag and 6xHIS tag) scFv: EVQLVQSGAEVKKPGASVKVSCKASGYTFTSYGISWVRQAPGQGLEWMGWISAYNGNTNYAQKLQGRVTMTTDTSTSTAYMELRSLKSDDTAVYYCAISIGAFDIWGQGTMVTVSSGGGGSGGGGSGGGGSEIVMTQSPATLSVSPGEEVTLSCRASQSVSSNLAWYQQRPGQAPRLLIYGASIKATDVPDRFSGGGSGTDFTLSISNLQSEDFAVYYCQQYHTWPPVTFGGGTKVEIK | – | – | 2.79 | 5.89 | 0.000283 | 40500 | –
5 | EP160-D02 scFv (scFv, VH-VL orientation; made in E. coli, His-tag purified; also called EP160-D2; not shown: C-terminal flag and 6xHIS tag) scFv: QVQLVQSGAEVKKPGASVKVSCKASGYTFTSYGISWVRQAPGQGLEWMGWISAYNGNTNYAQKLQGRVTMTTDTSTSTAYMELRSLRSDDTAVYYCARDPLEPLESDYWGQGTLVTVSSGGGGSGGGGSGGGGSEIVMTQSPATLSVSPGEGVTLSCRASQSVSSNLAWYQQRPGQAPRLLIYGASIKATDVPDRFSGGGSGTDFSLSITNLQSEDFAVYYCQQYHTWPPVTFGGGTKVEIK | – | – | 0.24 | 0.0194 | 0.000107 | 5.51e+06 | EC50 [9]: 0.0946 nM; EC50 [10]: 0.144 nM; IC50 [11]: 0.0898 nM; IC50 [12]: 0.0811 nM; EC50 [13]: 0.125 nM; IC50 [14]: 0.0822 nM

Further lines, with some results ahead:

Row | EC50 in ADCC assay (Promega ADCC Bioreporter, CD22/HEK293 target cells) [1] [nM] | T½ (Hour) of internalization, CD22/HEK293 cells, pHrodo secondary [2] [Hour] | EC50 [7] [nM] | Kd [8] [nM] | koff [8] [s⁻¹] | kon [8] [M⁻¹ s⁻¹] | Binder | also measured
6 | 1.95 | 5.06 | – | – | – | – | EP160-D02 (IgG) (antibody, V domains shown, also called EP160-D2 (IgG)) VH: QVQLVQSGAEVKKPGASVKVSCKASGYTFTSYGISWVRQAPGQGLEWMGWISAYNGNTNYAQKLQGRVTMTTDTSTSTAYMELRSLRSDDTAVYYCARDPLEPLESDYWGQGTLVTVSS VL: EIVMTQSPATLSVSPGEGVTLSCRASQSVSSNLAWYQQRPGQAPRLLIYGASIKATDVPDRFSGGGSGTDFSLSITNLQSEDFAVYYCQQYHTWPPVTFGGGTKVEIK | EC50 [3]: 0.039 nM; binding result [4]: no binding; EC50 [5]: 0.101 nM
7 | ~73.8 | – | – | – | – | – | EP160-H02 (IgG) (antibody, V domains shown) VH: QVQLVQSGAEVKKPGASVKVSCKASGYTFTSYGISWVRQAPGQGLEWMGGIIAYNGNTNYAQKLQGRVTMTTDTSTSTAYMELRSLRSDDTAVYYCARDPPEYSSSAGTDYWGQGTLVTVSS VL: EIVMTQSPATLSVSPGEGVTLSCRASQSVSSNLAWYQQRPGQAPRLLIYGASIKATDVPDRFSGGGSGTDFTLSITNLQSEDFAVYYCQQYHTWSPVTFGGGTKVEIK | –
8 | – | 6.07 | – | – | – | – | M971 IgG antibody (antibody, V domains shown, Known fully human anti-CD22 antibody used as IgG; also called IgG M971) VH: QVQLQQSGPGLVKPSQTLSLTCAISGDSVSSNSAAWNWIRQSPSRGLEWLGRTYYRSWYNDYAVSVKSRITINPDTSKNQFSLQLNSVTPEDTAVYYCAREVTGDLEDAFDIWGQGTMVTVSS VL: DIQMTQSPSSLSASVGDRVTITCRASQTIWSYLNWYQQRPGKAPNLLIYAASSLQSGVPSRFSGRGSGTDFTLTISSLQAEDFATYYCQQSYSIPQTFGQGTKLEIK | EC50 [3]: 0.059 nM
